Assay results: the supplement of paper PMC7877785
± gives the uncertainty stated by the source.

Assay: self-splicing fitness, log relative to wild type (ln ratio); higher = more splicing; Tetrahymena group I intron in knt gene, E. coli kanamycin selection, DiMSum; sequences stand for … in CUCUCU…GGAGGGAAAAGUUAUCAGGCAUGCACCUGGUAGCUAGUCUUUAAACCAAUAGAUUGCAUCGGUUUAAAAGGCAAGACCGUCAAAUUGCGGGAAAGGGGUCAACAGCCGUUCAGUACCAAGUCUCAGGGGAAACUUUGAGAUGGCCUUGCAAAGGGUAUGGUAAUAAGCUGACGGACAUGGUCCUAACCACGCAGCCAAGUCCUAAGUCAACAGAUCUUCUGUUGAUAUGGAUGCAGUUCACAGACUAAAUGUCGGUCGGGGAAGAUGUAUUCUUCUCAUAAGAUAUAGUCGGACCUCUCCUUAAUGGGAGCUAGCGGAUGAAGUGAUGCAACACUGGAGCCGCUGGGAACUAAUUUGUAUGCGAAAGUAUAUUGAUUAGUUUUGGAGUACUCGUGGUCG
In short: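 Library with all eight P1ex-region intron nucleotides randomised, intron inside the knt kanamycin-resistance gene on pET-22b(+), in E. coli BL21(DE3). Cells grew overnight at 37°C or 30°C on LB agar with or without 25 μg/mL kanamycin (plus 100 μg/mL carbenicillin, 50 μM IPTG, 0.2% rhamnose), in six replicate transformations. Pooled colonies were amplicon-sequenced on Illumina HiSeq 2500. DiMSum fitness is the error-weighted combination of wild-type-normalised replicate fold changes, kanamycin versus none.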

| Sequence | self-splicing fitness (ln) (30 °C) | self-splicing fitness (ln) (37 °C) |
| --- | --- | --- |
| CGAUAGCAAUAUUACGAUCU | -0.235 ± 0.11 | 0.177 ± 0.12 |
| GUACAGCAAUAUUACGGUAC | -4.08 ± 0.43 | -2.8 ± 0.26 |
| GCAGAGCAAUAUUACGAUCG |  | -1.33 ± 0.34 |
| ACGCAGCAAUAUUACGGACU | -0.613 ± 0.081 | 0.0817 ± 0.098 |
| AUACAGCAAUAUUACGAUCC | -0.368 ± 0.12 | -1.59 ± 0.15 |
| UCCGAGCAAUAUUACGUCGG | -2.97 ± 0.44 | -1.86 ± 0.35 |
| GAAAAGCAAUAUUACGGCAC | -0.696 ± 0.058 | -0.217 ± 0.093 |
| UGUAAGCAAUAUUACGGGAG | -3.47 ± 0.24 | -1.94 ± 0.25 |
| ACACAGCAAUAUUACGUAUU | -3.09 ± 0.089 | -2.29 ± 0.13 |
| UAUCAGCAAUAUUACGGUGU | -1.35 ± 0.072 | -1.19 ± 0.098 |
| UGAAAGCAAUAUUACGUGAU | -0.954 ± 0.077 | -1.45 ± 0.13 |
| AGCGAGCAAUAUUACGUUCG | -2.14 ± 0.37 | -2.67 ± 0.38 |
| UUGAAGCAAUAUUACGUAGU | -1.97 ± 0.12 | -1.54 ± 0.12 |
| CACGAGCAAUAUUACGCGUU | -4.28 ± 0.47 | -2.1 ± 0.18 |
| AGAGAGCAAUAUUACGGCAC |  | -1.68 ± 0.18 |
| UCCCAGCAAUAUUACGGGUC | -3.67 ± 0.16 | -3.35 ± 0.22 |
| GUCGAGCAAUAUUACGGAGC | -2.93 ± 0.2 | -1.24 ± 0.15 |
| CUGAAGCAAUAUUACGAGGC | -3.15 ± 0.17 | -1.69 ± 0.16 |
| UGGUAGCAAUAUUACGCUAA | -1.37 ± 0.14 | -0.667 ± 0.16 |
| CGGAAGCAAUAUUACGUUGA | -3.33 ± 0.16 | -2.65 ± 0.15 |
| GAGGAGCAAUAUUACGGUGA | -3.55 ± 0.37 | -1.49 ± 0.28 |
| GAGAAGCAAUAUUACGACAA | -0.787 ± 0.1 | -0.365 ± 0.12 |
| AGUGAGCAAUAUUACGGAUC | -2.42 ± 0.25 | -1.25 ± 0.34 |
| GACGAGCAAUAUUACGGACG | -1.64 ± 0.21 | -2.33 ± 0.31 |
| AAGAAGCAAUAUUACGCGAA | -2.18 ± 0.1 | -0.344 ± 0.093 |

| Sequence | self-splicing fitness (ln) (30 °C) | self-splicing fitness (ln) (37 °C) |
| --- | --- | --- |
| AAGCAGCAAUAUUACGAGUC | -4.83 ± 0.32 | -1.87 ± 0.18 |
| UCCAAGCAAUAUUACGCCCU | -2.49 ± 0.24 | -1.32 ± 0.26 |
| UAAUAGCAAUAUUACGGCUA | 0.00533 ± 0.088 | 0.527 ± 0.094 |
| AUAGAGCAAUAUUACGAGCG | -2.43 ± 0.21 | -1.07 ± 0.22 |
| AUCGAGCAAUAUUACGAAGC | -3.18 ± 0.39 |  |
| GAUGAGCAAUAUUACGAUUC | -2.42 ± 0.46 |  |
| AUCCAGCAAUAUUACGCUGU | -2.12 ± 0.14 | -2.02 ± 0.14 |
| UUAGAGCAAUAUUACGUUUC | -3.04 ± 0.2 |  |
| GAGCAGCAAUAUUACGAAAG | -3.71 ± 0.33 | -1.93 ± 0.22 |
| GACUAGCAAUAUUACGUCUC | -1.46 ± 0.16 | -0.484 ± 0.16 |
| AGCUAGCAAUAUUACGUUAG | -3.14 ± 0.22 | -2.56 ± 0.22 |
| CGAAAGCAAUAUUACGUGAU | -2.36 ± 0.11 | -1.95 ± 0.14 |
| CAGGAGCAAUAUUACGGAUU | -3.18 ± 0.23 | -2.52 ± 0.37 |
| GCGAAGCAAUAUUACGGUCU | -1.71 ± 0.085 | -0.493 ± 0.089 |
| CGUGAGCAAUAUUACGAAGA | -1.53 ± 0.37 |  |
| CAUGAGCAAUAUUACGACAU | -3.739 ± 0.028 | -2.9 ± 0.043 |
| CUAAAGCAAUAUUACGGGCU | -4.47 ± 0.18 | -2.59 ± 0.16 |
| UACGAGCAAUAUUACGUUAG | -3.03 ± 0.17 | -2.32 ± 0.19 |
| AUGAAGCAAUAUUACGGUAU | -0.945 ± 0.066 | -0.484 ± 0.086 |
| CAUGAGCAAUAUUACGCGUA | -2.65 ± 0.24 | -2.45 ± 0.25 |
| GCCUAGCAAUAUUACGGUAU | -0.978 ± 0.07 | -0.02 ± 0.08 |
| UAGUAGCAAUAUUACGUGCG | -1.52 ± 0.12 | -0.311 ± 0.15 |
| UGAGAGCAAUAUUACGGGUC |  | -1.33 ± 0.45 |
| UGAAAGCAAUAUUACGAAAA | -2.53 ± 0.23 | -1.14 ± 0.16 |
| GGCCAGCAAUAUUACGACGU | -0.821 ± 0.083 | 0.2 ± 0.12 |

| Sequence | self-splicing fitness (ln) (30 °C) | self-splicing fitness (ln) (37 °C) |
| --- | --- | --- |
| AUCCAGCAAUAUUACGAUUA | -1.19 ± 0.094 | -0.911 ± 0.1 |
| AGUUAGCAAUAUUACGGGGU | -3.76 ± 0.46 | -2.61 ± 0.33 |
| UACUAGCAAUAUUACGCCGG | -1.68 ± 0.18 | -0.8 ± 0.17 |
| AUAUAGCAAUAUUACGCAAC | -3.95 ± 0.32 | -1.96 ± 0.27 |
| AUCUAGCAAUAUUACGGCCU | -0.214 ± 0.1 | -0.589 ± 0.14 |
| ACUGAGCAAUAUUACGCAUA | -2.14 ± 0.31 | -1.77 ± 0.44 |
| CAAUAGCAAUAUUACGAUAC | -3.17 ± 0.19 | -2.41 ± 0.16 |
| UUCGAGCAAUAUUACGCGUG | -1.06 ± 0.13 | -0.676 ± 0.14 |
| CUGCAGCAAUAUUACGAAAG | -1.42 ± 0.14 | -1.47 ± 0.15 |
| CAUCAGCAAUAUUACGUUCA | -2.66 ± 0.16 | -1.77 ± 0.15 |
| CUGCAGCAAUAUUACGCAAG | -2.58 ± 0.18 | -2.83 ± 0.44 |
| GCGAAGCAAUAUUACGCGUC |  | -1.65 ± 0.17 |
| CGAGAGCAAUAUUACGUGAC | -2.77 ± 0.2 | -2.01 ± 0.29 |
| CCAGAGCAAUAUUACGGGAG | -3.51 ± 0.23 | -3.55 ± 0.3 |
| CACUAGCAAUAUUACGCGUA | -1.84 ± 0.093 | -0.0161 ± 0.075 |
| ACUAAGCAAUAUUACGACGG | -0.271 ± 0.074 | 0.203 ± 0.094 |
| AGACAGCAAUAUUACGUUCG | -0.687 ± 0.05 | 0.0905 ± 0.072 |
| GCGCAGCAAUAUUACGGUGC | -4.08 ± 0.25 | -2.13 ± 0.32 |
| CUUAAGCAAUAUUACGGAUA | -1.88 ± 0.36 |  |
| UGAGAGCAAUAUUACGUAAG | -3.27 ± 0.23 | -1.67 ± 0.21 |
| CGGAAGCAAUAUUACGCUGG | -1.62 ± 0.11 | -1.15 ± 0.17 |
| CGCCAGCAAUAUUACGUGGG | -3.79 ± 0.19 | -2.38 ± 0.19 |
| AGGCAGCAAUAUUACGGGUA | -2.35 ± 0.15 | -1.05 ± 0.11 |
| AGAUAGCAAUAUUACGCAAU | -1.14 ± 0.1 | -1.34 ± 0.15 |
| GGUAAGCAAUAUUACGAUGU | -1.2 ± 0.061 | -0.805 ± 0.074 |

| Sequence | self-splicing fitness (ln) (30 °C) | self-splicing fitness (ln) (37 °C) |
| --- | --- | --- |
| GGCCAGCAAUAUUACGCCCU | -1.37 ± 0.16 | -0.726 ± 0.15 |
| UUUAAGCAAUAUUACGUCUC | -1.11 ± 0.29 | -1.83 ± 0.39 |
| GCGGAGCAAUAUUACGUAGU | -2.12 ± 0.23 | 0.836 ± 0.34 |
| GUAUAGCAAUAUUACGGAUA | -1.43 ± 0.27 | -1.55 ± 0.28 |
| CACAAGCAAUAUUACGGUGA | -3.09 ± 0.12 | -0.931 ± 0.085 |
| CAUAAGCAAUAUUACGAGCC | -3.21 ± 0.35 | -2.41 ± 0.44 |
| UAGAAGCAAUAUUACGGGGA | -2.39 ± 0.14 | -0.988 ± 0.12 |
| AAAAAGCAAUAUUACGGAGU | -2.15 ± 0.13 | -1.63 ± 0.13 |
| ACAUAGCAAUAUUACGCCUG | -0.96 ± 0.16 | -0.622 ± 0.15 |
| CAUUAGCAAUAUUACGCUGU | -2.72 ± 0.13 | -2.21 ± 0.18 |
| CGGGAGCAAUAUUACGGCGG | -1.17 ± 0.11 | -1.09 ± 0.19 |
| UUUGAGCAAUAUUACGACCU | -2.7 ± 0.26 | -1.02 ± 0.34 |
| CCCAAGCAAUAUUACGACAC | -2.66 ± 0.2 | -3.25 ± 0.43 |
| AGGAAGCAAUAUUACGUAAA | -2.59 ± 0.18 | -1.88 ± 0.18 |
| UGCAAGCAAUAUUACGUCUG | -1.34 ± 0.08 | -0.432 ± 0.1 |
| GCGAAGCAAUAUUACGAACC | -1.67 ± 0.13 | -1.06 ± 0.15 |
| GAGAAGCAAUAUUACGCUAG | -1.66 ± 0.12 | -0.805 ± 0.15 |
| GUUUAGCAAUAUUACGCGCA | -0.466 ± 0.1 | -0.363 ± 0.12 |
| UUAUAGCAAUAUUACGCUCG | 0.392 ± 0.25 | 0.206 ± 0.22 |
| CUAGAGCAAUAUUACGGAUU |  | -3.03 ± 0.43 |
| UAUAAGCAAUAUUACGCUGC | -3.35 ± 0.32 |  |
| CUAUAGCAAUAUUACGUUUC | -3.68 ± 0.23 | -2.86 ± 0.31 |
| GGAGAGCAAUAUUACGAAUG | -3.28 ± 0.28 | -2.71 ± 0.41 |
